Data taken from patent publication US20250361268A1, “NOVEL ANTI-INFLAMMATORY PEPTIDE AND USE THEREOF” (NOVACELL TECHNOLOGY INC., priority 2022, published 2025).

T1: FPR1 (UniProt P21462 1-350, limits assumed)
T1 sequence (looked up): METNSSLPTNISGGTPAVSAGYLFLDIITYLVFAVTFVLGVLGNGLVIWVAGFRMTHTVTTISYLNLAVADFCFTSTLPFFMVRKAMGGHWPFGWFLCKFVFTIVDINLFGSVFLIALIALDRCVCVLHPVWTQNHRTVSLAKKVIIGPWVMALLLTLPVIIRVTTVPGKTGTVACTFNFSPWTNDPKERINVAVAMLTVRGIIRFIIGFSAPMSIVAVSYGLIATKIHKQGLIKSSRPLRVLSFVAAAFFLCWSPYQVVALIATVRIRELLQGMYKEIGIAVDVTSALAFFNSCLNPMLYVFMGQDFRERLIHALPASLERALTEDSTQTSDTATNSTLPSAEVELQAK


Biological target: T1, FPR1
Test: cell-based or functional assay

Row | Binder | EC50 for [Ca2+] [µM]
1 | WRYWYM (HELM PEPTIDE1{W.R.Y.W.Y.[dM].[am]}$$$$V2.0; N-terminus assumed; SMILES CSCC[C@@H](NC(=O)[C@H](Cc1ccc(O)cc1)NC(=O)[C@H](Cc1c[nH]c2ccccc12)NC(=O)[C@H](Cc1ccc(O)cc1)NC(=O)[C@H](CCCNC(=N)N)NC(=O)[C@@H](N)Cc1c[nH]c2ccccc12)C(N)=O) [peptide of SEQ ID NO 79] | > 10
2 | RMRYKVM (HELM PEPTIDE1{[CCCCCCCC(=O)[*:2]].R.M.R.Y.K.V.[dM].[am]}$$$$V2.0; SMILES CCCCCCCC(=O)N[C@@H](CCCNC(=N)N)C(=O)N[C@@H](CCSC)C(=O)N[C@@H](CCCNC(=N)N)C(=O)N[C@@H](Cc1ccc(O)cc1)C(=O)N[C@@H](CCCCN)C(=O)N[C@H](C(=O)N[C@H](CCSC)C(N)=O)C(C)C) [peptide of SEQ ID NO 8] | > 10
3 | RMRYWYM (HELM PEPTIDE1{[CCCCCCCC(=O)[*:2]].R.M.R.Y.W.Y.[dM].[am]}$$$$V2.0; SMILES CCCCCCCC(=O)N[C@@H](CCCNC(=N)N)C(=O)N[C@@H](CCSC)C(=O)N[C@@H](CCCNC(=N)N)C(=O)N[C@@H](Cc1ccc(O)cc1)C(=O)N[C@@H](Cc1c[nH]c2ccccc12)C(=O)N[C@@H](Cc1ccc(O)cc1)C(=O)N[C@H](CCSC)C(N)=O) [peptide of SEQ ID NO 84] | > 10
4 | MRYWYM (HELM PEPTIDE1{[CCCCCCCC(=O)[*:2]].M.R.Y.W.Y.[dM].[am]}$$$$V2.0; SMILES CCCCCCCC(=O)N[C@@H](CCSC)C(=O)N[C@@H](CCCNC(=N)N)C(=O)N[C@@H](Cc1ccc(O)cc1)C(=O)N[C@@H](Cc1c[nH]c2ccccc12)C(=O)N[C@@H](Cc1ccc(O)cc1)C(=O)N[C@H](CCSC)C(N)=O) [peptide of SEQ ID NO 88] | > 10
5 | MKYWYM (HELM PEPTIDE1{[ac].M.K.Y.W.Y.[dM].[am]}$$$$V2.0; SMILES CSCC[C@H](NC(C)=O)C(=O)N[C@@H](CCCCN)C(=O)N[C@@H](Cc1ccc(O)cc1)C(=O)N[C@@H](Cc1c[nH]c2ccccc12)C(=O)N[C@@H](Cc1ccc(O)cc1)C(=O)N[C@H](CCSC)C(N)=O) [peptide of SEQ ID NO 90] | > 10
6 | MKYWYM (HELM PEPTIDE1{[CCCC(=O)[*:2]].M.K.Y.W.Y.[dM].[am]}$$$$V2.0; SMILES CCCC(=O)N[C@@H](CCSC)C(=O)N[C@@H](CCCCN)C(=O)N[C@@H](Cc1ccc(O)cc1)C(=O)N[C@@H](Cc1c[nH]c2ccccc12)C(=O)N[C@@H](Cc1ccc(O)cc1)C(=O)N[C@H](CCSC)C(N)=O) [peptide of SEQ ID NO 91] | > 10
7 | KMKYKVM (HELM PEPTIDE1{K.M.K.Y.K.V.[dM].[am]}$$$$V2.0; N-terminus assumed; SMILES CSCC[C@H](NC(=O)[C@@H](N)CCCCN)C(=O)N[C@@H](CCCCN)C(=O)N[C@@H](Cc1ccc(O)cc1)C(=O)N[C@@H](CCCCN)C(=O)N[C@H](C(=O)N[C@H](CCSC)C(N)=O)C(C)C) [peptide of SEQ ID NO 9] | > 10
8 | KMKYKVM (HELM PEPTIDE1{[ac].K.M.K.Y.K.V.[dM].[am]}$$$$V2.0; SMILES CSCC[C@H](NC(=O)[C@H](CCCCN)NC(C)=O)C(=O)N[C@@H](CCCCN)C(=O)N[C@@H](Cc1ccc(O)cc1)C(=O)N[C@@H](CCCCN)C(=O)N[C@H](C(=O)N[C@H](CCSC)C(N)=O)C(C)C) [peptide of SEQ ID NO 10] | > 10
9 | KMKYKVM (HELM PEPTIDE1{[CCCCCCCC(=O)[*:2]].K.M.K.Y.K.V.[dM].[am]}$$$$V2.0; SMILES CCCCCCCC(=O)N[C@@H](CCCCN)C(=O)N[C@@H](CCSC)C(=O)N[C@@H](CCCCN)C(=O)N[C@@H](Cc1ccc(O)cc1)C(=O)N[C@@H](CCCCN)C(=O)N[C@H](C(=O)N[C@H](CCSC)C(N)=O)C(C)C) [peptide of SEQ ID NO 12] | > 10
10 | MRYYYM (HELM PEPTIDE1{[ac].M.R.Y.Y.Y.[dM].[am]}$$$$V2.0; SMILES CSCC[C@H](NC(C)=O)C(=O)N[C@@H](CCCNC(=N)N)C(=O)N[C@@H](Cc1ccc(O)cc1)C(=O)N[C@@H](Cc1ccc(O)cc1)C(=O)N[C@@H](Cc1ccc(O)cc1)C(=O)N[C@H](CCSC)C(N)=O) [peptide of SEQ ID NO 126] | > 10
11 | IKFWYM (HELM PEPTIDE1{I.K.F.W.Y.[dM].[am]}$$$$V2.0; N-terminus assumed; SMILES CC[C@H](C)[C@H](N)C(=O)N[C@@H](CCCCN)C(=O)N[C@@H](Cc1ccccc1)C(=O)N[C@@H](Cc1c[nH]c2ccccc12)C(=O)N[C@@H](Cc1ccc(O)cc1)C(=O)N[C@H](CCSC)C(N)=O) [peptide of SEQ ID NO 128] | > 10
12 | IKFWMM (HELM PEPTIDE1{I.K.F.W.M.[dM].[am]}$$$$V2.0; N-terminus assumed; SMILES CC[C@H](C)[C@H](N)C(=O)N[C@@H](CCCCN)C(=O)N[C@@H](Cc1ccccc1)C(=O)N[C@@H](Cc1c[nH]c2ccccc12)C(=O)N[C@@H](CCSC)C(=O)N[C@H](CCSC)C(N)=O) [peptide of SEQ ID NO 129] | > 10
13 | IKKWMM (HELM PEPTIDE1{I.K.K.W.M.[dM].[am]}$$$$V2.0; N-terminus assumed; SMILES CC[C@H](C)[C@H](N)C(=O)N[C@@H](CCCCN)C(=O)N[C@@H](CCCCN)C(=O)N[C@@H](Cc1c[nH]c2ccccc12)C(=O)N[C@@H](CCSC)C(=O)N[C@H](CCSC)C(N)=O) [peptide of SEQ ID NO 130] | > 10
14 | IKFKYM (HELM PEPTIDE1{I.K.F.K.Y.[dM].[am]}$$$$V2.0; N-terminus assumed; SMILES CC[C@H](C)[C@H](N)C(=O)N[C@@H](CCCCN)C(=O)N[C@@H](Cc1ccccc1)C(=O)N[C@@H](CCCCN)C(=O)N[C@@H](Cc1ccc(O)cc1)C(=O)N[C@H](CCSC)C(N)=O) [peptide of SEQ ID NO 131] | > 10
15 | IKFKVM (HELM PEPTIDE1{I.K.F.K.V.[dM].[am]}$$$$V2.0; N-terminus assumed; SMILES CC[C@H](C)[C@H](N)C(=O)N[C@@H](CCCCN)C(=O)N[C@@H](Cc1ccccc1)C(=O)N[C@@H](CCCCN)C(=O)N[C@H](C(=O)N[C@H](CCSC)C(N)=O)C(C)C) [peptide of SEQ ID NO 132] | > 10
16 | IKYKPM (HELM PEPTIDE1{[CCCCCCCC(=O)[*:2]].I.K.Y.K.P.[dM].[am]}$$$$V2.0; SMILES CCCCCCCC(=O)N[C@H](C(=O)N[C@@H](CCCCN)C(=O)N[C@@H](Cc1ccc(O)cc1)C(=O)N[C@@H](CCCCN)C(=O)N1CCC[C@H]1C(=O)N[C@H](CCSC)C(N)=O)[C@@H](C)CC) [peptide of SEQ ID NO 145] | > 10
17 | RWRYRIM (HELM PEPTIDE1{R.W.R.Y.R.I.[dM].[am]}$$$$V2.0; N-terminus assumed; SMILES CC[C@H](C)[C@H](NC(=O)[C@H](CCCNC(=N)N)NC(=O)[C@H](Cc1ccc(O)cc1)NC(=O)[C@H](CCCNC(=N)N)NC(=O)[C@H](Cc1c[nH]c2ccccc12)NC(=O)[C@@H](N)CCCNC(=N)N)C(=O)N[C@H](CCSC)C(N)=O) [peptide of SEQ ID NO 152] | > 10
18 | RWRYRTM (HELM PEPTIDE1{R.W.R.Y.R.T.[dM].[am]}$$$$V2.0; N-terminus assumed; SMILES CSCC[C@@H](NC(=O)[C@@H](NC(=O)[C@H](CCCNC(=N)N)NC(=O)[C@H](Cc1ccc(O)cc1)NC(=O)[C@H](CCCNC(=N)N)NC(=O)[C@H](Cc1c[nH]c2ccccc12)NC(=O)[C@@H](N)CCCNC(=N)N)[C@@H](C)O)C(N)=O) [peptide of SEQ ID NO 153] | > 10
19 | RWRYNYM (HELM PEPTIDE1{R.W.R.Y.N.Y.[dM].[am]}$$$$V2.0; N-terminus assumed; SMILES CSCC[C@@H](NC(=O)[C@H](Cc1ccc(O)cc1)NC(=O)[C@H](CC(N)=O)NC(=O)[C@H](Cc1ccc(O)cc1)NC(=O)[C@H](CCCNC(=N)N)NC(=O)[C@H](Cc1c[nH]c2ccccc12)NC(=O)[C@@H](N)CCCNC(=N)N)C(N)=O) [peptide of SEQ ID NO 155] | > 10
20 | MRYKVM (HELM PEPTIDE1{[CCCCCCCC(=O)[*:2]].M.R.Y.K.V.[dM].[am]}$$$$V2.0; SMILES CCCCCCCC(=O)N[C@@H](CCSC)C(=O)N[C@@H](CCCNC(=N)N)C(=O)N[C@@H](Cc1ccc(O)cc1)C(=O)N[C@@H](CCCCN)C(=O)N[C@H](C(=O)N[C@H](CCSC)C(N)=O)C(C)C) [peptide of SEQ ID NO 16] | > 10
21 | MKYKVM (HELM PEPTIDE1{[CCCCCCCC(=O)[*:2]].M.K.Y.K.V.[dM].[am]}$$$$V2.0; SMILES CCCCCCCC(=O)N[C@@H](CCSC)C(=O)N[C@@H](CCCCN)C(=O)N[C@@H](Cc1ccc(O)cc1)C(=O)N[C@@H](CCCCN)C(=O)N[C@H](C(=O)N[C@H](CCSC)C(N)=O)C(C)C) [peptide of SEQ ID NO 20] | > 10
